The values below come from publication PMC6748615.

Where two headings read alike, the source gives them in different places.

For orientation: Kd means the concentration at which binding is half-saturated. Read a high Kd as a looser complex. The term kon denotes the second-order rate constant of association. By koff is commonly meant the rate constant with which the complex falls apart. A high value points to fast dissociation.

The target in test [1] is biotinylated human FcRn (human) (UniProt P55899). The experiment in a line: SPR.
Test [2] has the same target. In words: FcRn affinity chromatography.
For test [3], the target named is Human CD16a (FcγRIIIa-V158) (human) (UniProt P08637). The experiment in a line: SPR. A general note: SPR reads the build-up and loss of mass on a sensor chip optically.
A further test addresses rat FcRn (rat) (UniProt P13599). In words: SPR.
Test [4] has as its target biotinylated human FcRn (human) (UniProt P55899). In words: SPR. This is another data set of the same source.
The target is the same in test [5].
In test [6] the target is biotinylated cynomolgus FcRn (cynomolgus) (UniProt Q8SPV9).
The target in another test is mAb1 N434F. The experiment in a line: BLI.
The next test addresses mAb1 N434Y. In words: BLI. A general note: In BLI a coated tip is dipped into the sample, and binding shifts an interference pattern.
The target in another test is mAb1 M252Y. In words: BLI.

UniProt P55899, sequence (P55899 24-297, chain 1 of 2): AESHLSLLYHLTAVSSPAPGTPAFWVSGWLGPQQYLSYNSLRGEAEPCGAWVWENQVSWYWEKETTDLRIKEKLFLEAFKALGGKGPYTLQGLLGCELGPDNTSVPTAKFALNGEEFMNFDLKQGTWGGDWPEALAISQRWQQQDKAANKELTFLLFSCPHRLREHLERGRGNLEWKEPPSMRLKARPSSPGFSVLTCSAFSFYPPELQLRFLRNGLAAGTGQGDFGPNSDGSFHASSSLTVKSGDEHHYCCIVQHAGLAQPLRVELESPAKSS
UniProt P55899, sequence (P61769 21-119, chain 2 of 2, further chain): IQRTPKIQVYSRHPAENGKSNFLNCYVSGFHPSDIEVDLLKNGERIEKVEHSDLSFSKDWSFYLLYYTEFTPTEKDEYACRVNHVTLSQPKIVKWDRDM
UniProt Q8SPV9, sequence (Q8SPV9 24-297, chain 1 of 2): as the sequence (P55899 24-297, chain 1 of 2) above, with N39D, E44Q, G99S, S189G, S190N, L217M, S269T counted along it
UniProt Q8SPV9, sequence (Q8SPW0 21-119, chain 2 of 2, further chain): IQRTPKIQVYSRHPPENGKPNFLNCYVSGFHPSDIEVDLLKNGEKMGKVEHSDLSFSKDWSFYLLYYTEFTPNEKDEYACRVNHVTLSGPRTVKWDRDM

Turning to mAb1 YTE (M252Y/S254T/T256E) (antibody), the steady state RU, pH 7.4 in [1] was found to be 13.1 RU. In addition, the elution pH in test [2] stood at 8.14 pH. For the same molecule, the affinity fold change vs WT in [3] is 0.52 fold. This molecule gave a steady state RU, pH 7.4 with rat FcRn (rat) of 53.9 RU. In test [4], this molecule came in with a Kd of 342 nM; a kon of 143000 M⁻¹ s⁻¹; a steady state RU, pH 7.4 of 13.2 RU.
mAb1 YETN (M252Y/T256E) (antibody) returned an elution pH in [2] of 7.83 pH. In addition, the steady state RU in [3] was 58.5 RU. In the test with rat FcRn (rat), this molecule came in with a Kd of 8.43 nM and a steady state RU, pH 7.4 of 55.1 RU. In [4], this molecule gave a Kd of 128 nM; a koff of 0.757 s⁻¹; a kon of 59200 M⁻¹ s⁻¹; a steady state RU, pH 7.4 of 9.8 RU.
As to mAb1 M252Y (antibody), the elution pH in test [2] was 7.88 pH. Moreover, the figures for the Kd (with rat FcRn (rat); in [4]) were 25 nM and 3100 nM, respectively.
Molecule mAb1 LS (M428L/N434S) (antibody) showed a steady state RU, pH 7.4 in [1] of 18.5 RU. This molecule gave an elution pH in test [2] of 8.29 pH. In addition, the affinity fold change vs WT in [3] turned out to be 1.04 fold. Also, in the test with rat FcRn (rat), the equilibrium dissociation constant (Kd) amounted to 74 nM and the steady state RU, pH 7.4 was found to be 24.8 RU. In [4], the Kd was 272 nM; the off-rate constant (koff) worked out at 0.052 s⁻¹; the kon stood at 193000 M⁻¹ s⁻¹; the steady state RU, pH 7.4 worked out at 18.3 RU.
For the molecule mAb1 T307W (antibody), the elution pH in test [2] stood at 7.75 pH. Besides, the Kd in the test with rat FcRn (rat) was 111 nM; in test [4], 8740 nM.
Regarding mAb1 N434F (antibody), in the test with rat FcRn (rat), the dissociation constant Kd was determined as 26 nM and the steady state RU, pH 7.4 stood at 54.9 RU. In test [4], this molecule gave a Kd of 165 nM and a steady state RU, pH 7.4 of 20.1 RU.
As to mAb1 T307Q (antibody), the elution pH in test [2] worked out at 7.86 pH. For the same molecule, the affinity fold change vs WT in test [3] was found to be 1 fold. This molecule also had a Kd with rat FcRn (rat) of 58 nM. In test [4], this molecule registered a Kd of 5720 nM, a koff of 0.215 s⁻¹ and an on-rate constant (kon) of 39600 M⁻¹ s⁻¹.
As for mAb1 N434P (antibody), in test [2], the elution pH was 7.56 pH. Besides, in the test with rat FcRn (rat), the Kd is 194 nM.
For “mAb1 YEQN (M252Y/T256E/T307Q) (antibody)”, in test [2], the elution pH amounted to 8.12 pH. Further, in test [3], the steady state RU turned out to be 43.5 RU. In the test with rat FcRn (rat), this molecule gave a Kd of 7.76 nM and a steady state RU, pH 7.4 of 61.8 RU. In test [4], this molecule yielded a Kd of 218 nM; a koff of 0.405 s⁻¹; an association rate constant (kon) of 18500 M⁻¹ s⁻¹; a steady state RU, pH 7.4 of 15.2 RU.
In turn, mAb1 AAA (T307A/E380A/N434A) (antibody) displayed an elution pH in test [2] of 7.94 pH. Also, the affinity fold change vs WT in test [3] came out at 0.89 fold. In the test with rat FcRn (rat), the Kd was 77 nM and the steady state RU, pH 7.4 came to 23.6 RU. In [4], this molecule had a Kd of 1780 nM; a koff of 0.144 s⁻¹; a kon of 83700 M⁻¹ s⁻¹; a steady state RU, pH 7.4 of 13.9 RU.
For the molecule mAb1 K288N (antibody), the elution pH in test [2] worked out at 7.39 pH. The dissociation constant Kd with rat FcRn (rat) came to 190 nM.
mAb1 Y436N (antibody) displayed an elution pH in test [2] of 7.22 pH. In the test with rat FcRn (rat), this molecule came in with a Kd of 233 nM.
On to mAb2 DQ (T256D/T307Q) (antibody), for which the plasma elimination half-life t1/2 in hFcRn Tg32 transgenic mice, 2.5 mg/kg i.v. in test [5] was 24.5 days.
On to mAb2 DW (T256D/T307W) (antibody), for which, in test [6], the plasma elimination half-life t1/2 in cynomolgus monkeys, 2.5 mg/kg i.v. came to 20.4 days. This molecule also came in with a plasma elimination half-life t1/2 in hFcRn Tg32 transgenic mice, 2.5 mg/kg i.v. in [5] of 20.1 days.
With mAb1 T307F (antibody), the elution pH in test [2] was found to be 7.61 pH. In addition, in the test with rat FcRn (rat), the Kd came to 131 nM.
Molecule mAb1 MDQN (DQ: T256D/T307Q) (antibody) had an elution pH in test [2] of 7.92 pH. Moreover, the steady state RU in test [3] amounted to 103 RU. In addition, in the test with rat FcRn (rat), the Kd is 9.54 nM and the steady state RU, pH 7.4 is 39.1 RU. In test [4], this molecule had a Kd of 232 nM; a koff of 0.872 s⁻¹; a kon of 37600 M⁻¹ s⁻¹; a steady state RU, pH 7.4 of 10.7 RU.
In test [2], mAb1 N434Y (antibody) came in with an elution pH of 8.46 pH. The affinity fold change vs WT in test [3] turned out to be 1.41 fold. In the test with rat FcRn (rat), this molecule showed a Kd of 23 nM and a steady state RU, pH 7.4 of 47 RU. In test [4], the Kd worked out at 137 nM; the off-rate constant (koff) came to 0.052 s⁻¹; the kon is 359000 M⁻¹ s⁻¹; the steady state RU, pH 7.4 worked out at 22.6 RU.
mAb1 T256D (antibody) gave an elution pH in test [2] of 7.82 pH. Besides, the Kd in the test with rat FcRn (rat) was determined as 86 nM; in test [4], 6700 nM.
In the case of mAb1 T256E (antibody), in [2], the elution pH turned out to be 7.63 pH. Also, in the test with rat FcRn (rat), the Kd is 113 nM.
mAb1 T307M (antibody) yielded an elution pH in test [2] of 7.4 pH. This molecule also registered a Kd in the test with rat FcRn (rat) of 279 nM.
mAb1 YTWN (M252Y/T307W) (antibody) registered an elution pH in test [2] of 8.14 pH. In [3], this molecule had a steady state RU of 67.5 RU. In the test with rat FcRn (rat), the Kd came to 5.21 nM and the steady state RU, pH 7.4 was 66.1 RU. Further, in [4], the Kd came to 118 nM; the on-rate constant (kon) was found to be 48300 M⁻¹ s⁻¹; the steady state RU, pH 7.4 came to 15.9 RU.
Regarding mAb2 YD (M252Y/T256D) (antibody), the plasma elimination half-life t1/2 in cynomolgus monkeys, 2.5 mg/kg i.v. in test [6] was found to be 23.5 days. The same molecule showed a plasma elimination half-life t1/2 in hFcRn Tg32 transgenic mice, 2.5 mg/kg i.v. in test [5] of 17.5 days.
Regarding mAb1 E380C (antibody), the elution pH in test [2] stood at 7.18 pH. In the test with rat FcRn (rat), this molecule displayed a Kd of 6310 nM.
In test [2], mAb1 T307E (antibody) yielded an elution pH of 7.58 pH. The molecule also displayed a Kd with rat FcRn (rat) of 141 nM. In test [4], this molecule showed a Kd of 8130 nM, a koff of 0.298 s⁻¹ and a kon of 43700 M⁻¹ s⁻¹.
In turn, mAb1 YDTN (YD: M252Y/T256D) (antibody) showed an elution pH in test [2] of 8.29 pH. This molecule also registered a steady state RU in test [3] of 67.7 RU. In the test with rat FcRn (rat), this molecule displayed a Kd of 5.86 nM and a steady state RU, pH 7.4 of 56 RU. In test [4], this molecule had a Kd of 93.6 nM; a koff of 0.593 s⁻¹; a kon of 63300 M⁻¹ s⁻¹; a steady state RU, pH 7.4 of 9.7 RU.
In the case of mAb1 Y436H (antibody), the elution pH in test [2] is 7.33 pH. The Kd with rat FcRn (rat) is 131 nM.
Taken in the same sequence, the figures for mAb1 Y436W (antibody) were 7.39 pH and 1140 nM.
Take “mAb1 YDQN (M252Y/T256D/T307Q) (antibody)”: the elution pH in [2] is 8.51 pH. For the same molecule, the steady state RU in test [3] amounted to 59.2 RU. In the test with rat FcRn (rat), this molecule displayed a Kd of 5.12 nM and a steady state RU, pH 7.4 of 65.2 RU. In test [4], the equilibrium dissociation constant (Kd) turned out to be 115 nM; the koff is 0.282 s⁻¹; the on-rate constant (kon) came to 24600 M⁻¹ s⁻¹; the steady state RU, pH 7.4 was found to be 19.8 RU.
mAb1 K288D (antibody) gave an elution pH in test [2] of 7.33 pH. Also, the dissociation constant Kd with rat FcRn (rat) is 149 nM.
mAb1 T307A (antibody) displayed an elution pH in test [2] of 7.61 pH. This molecule displayed a Kd in the test with rat FcRn (rat) of 132 nM.
For the molecule mAb1 MDWN (DW: T256D/T307W) (antibody), the elution pH in test [2] came to 7.92 pH. Moreover, the steady state RU in test [3] stood at 126 RU. In the test with rat FcRn (rat), this molecule came in with a Kd of 8.24 nM and a steady state RU, pH 7.4 of 42.1 RU. Moreover, in test [4], the Kd turned out to be 169 nM; the koff was 0.892 s⁻¹; the on-rate (kon) is 52900 M⁻¹ s⁻¹; the steady state RU, pH 7.4 worked out at 12.2 RU.
In [2], mAb1 WT (model IgG1) (antibody) registered an elution pH of 7.37 pH. For the same molecule, the affinity fold change vs WT in test [3] was found to be 1 fold. The molecule also had an equilibrium dissociation constant (Kd) in the test with rat FcRn (rat) of 207 nM. In test [4], this molecule returned a Kd of 2380 nM, a koff of 0.386 s⁻¹ and a kon of 162000 M⁻¹ s⁻¹.

B1: rat FcRn (receptor)
chain 1: AEPRLPLMYHLAAVSDLSTGLPSFWATGWLGAQQYLTYNNLRQEADPCGAWIWENQVSWYWEKETTDLKSKEQLFLEAIRTLENQINGTFTLQGLLGCELAPDNSSLPTAVFALNGEEFMRFNPRTGNWSGEWPETDIVGNLWMKQPEAARKESEFLLTSCPERLLGHLERGRQNLEWKEPPSMRLKARPGNSGSSVLTCAAFSFYPPELKFRFLRNGLASGSGNCSTGPNGDGSFHAWSLLEVKRGDEHHYQCQVEHEGLAQPLTVDLDSPARSS
chain 2: IQKTPQIQVYSRHPPENGKPNFLNCYVSQFHPPQIEIELLKNGKKIPNIEMSDLSFSKDWSFYILAHTEFTPTETDVYACRVKHVTLKEPKTVTWDRDM
Regarding B1, the fold slower off rate than WT with mAb1 N434F, with mAb1 N434Y and with mAb1 M252Y was > 1.8 fold throughout.
